Source: US20090142784

Key:
[1] = target: T1, LRRKtide peptide (RLGRDKYKTLRQIRQ)
T1 chain: RLGRDKYKTLRQIRQ

[2] = target: T2, Nictide (RLGWWRFYTLRRARQGNTKQR)
T2 chain: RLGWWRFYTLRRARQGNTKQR

B1: GST-LRRK2[1326-2527, G2019S] (protein)
chain: LKKAVPYNRMKLMIVGNTGSGKTTLLQQLMKTKKSDLGMQSATVGIDVKDWPIQIRDKRKRDLVLNVWDFAGREEFYSTHPHFMTQRALYLAVYDLSKGQAEVDAMKPWLFNIKARASSSPVILVGTHLDVSDEKQRKACMSKITKELLNKRGFPAIRDYHFVNATEESDALAKLRKTIINESLNFKIRDQLVVGQLIPDCYVELEKIILSERKNVPIEFPVIDRKRLLQLVRENQLQLDENELPHAVHFLNESGVLLHFQDPALQLSDLYFVEPKWLCKIMAQILTVKVEGCPKHPKGIISRRDVEKFLSKKRKFPKNYMSQYFKLLEKFQIALPIGEEYLLVPSSLSDHRPVIELPHCENSEIIIRLYEMPYFPMGFWSRLINRLLEISPYMLSGRERALRPNRMYWRQGIYLNWSPEAYCLVGSEVLDNHPESFLKITVPSCRKGCILLGQVVDHIDSLMEEWFPGLLEIDICGEGETLLKKWALYSFNDGEEHQKILLDDLMKKAEEGDLLVNPDQPRLTIPISQIAPDLILADLPRNIMLNNDELEFEQAPEFLLGDGSFGSVYRAAYEGEEVAVKIFNKHTSLRLLRQELVVLCHLHHPSLISLLAAGIRPRMLVMELASKGSLDRLLQQDKASLTRTLQHRIALHVADGLRYLHSAMIIYRDLKPHNVLLFTLYPNAAIIAKIADYSIAQYCCRMGIKTSEGTPGFRAPEVARGNVIYNQQADVYSFGLLLYDILTTGGRIVEGLKFPNEFDELEIQGKLPDPVKEYGCAPWPMVEKLIKQCLKENPQERPTSAQVFDILNSAELVCLTRRILLPKNVIVECMVATHHNSRNASIWLGCGHTDRGQLSFLDLNTEGYTSEEVADSRILCLALVHLPVEKESWIVSGTQSGTLLVINTEDGKKRHTLEKMTDSVTCLYCNSFSKQSKQKNFLLVGTADGKLAIFEDKTVKLKGAAPLKILNIGNVSTPLMCLSESTNSTERNVMWGGCGTKIFSFSNDFTIQKLIETRTSQLFSYAAFSDSNIITVVVDTALYIAKQNSPVVEVWDKKTEKLCGLIDCVHFLREVMVKENKESKHKMSYSGRVKTLCLQKNTALWIGTGGGHILLLDLSTRRLIRVIYNFCNSVRVMMTAQLGSLKNVMLVLGYNRKNTEGTQKQKEIQSCLTVWDINLPHEVQNLEKHIEVRKELAEKMRRTSVE
Km (phosphorylation of LRRKtide, P81 paper 32P assay) [1]: a similar Km of approximately 200 µM | Km (concentration dependent phosphorylation of Nictide, 5 min reactions) [2]: Calculated Km values are 6 µM for Nictide
